Read-outs that look alike come from different tables or passages of the source.
Assays:
human α-thrombin (human) [1] = test: discontinuous thrombin inhibition assay (second order rate constant k2); pseudo first order conditions; purified API proteins and thrombin; mean ± SD of 5 determinations
human α-thrombin (human) [2] = test: ELISA; thrombin capture assay: thrombin (5 µg/ml) coated on microtiter wells in PBS; cleared bacterial lysates applied neat for one hour; detected with HRP-conjugated sheep anti-human API; OD 450 nm, for P7–P3 variants normalized to API M358R lysate
human α-thrombin (human) [3] = test: as above; remark: listed apart in the source

Substance | k2 (second order rate constant of thrombin inhibition) (mol^−1 sec^−1) (human α-thrombin (human) [1]) | relative OD450 versus API M358R (human α-thrombin (human) [2]) | relative OD450 versus API M358R (human α-thrombin (human) [3])
API M358R P7–P3 variant AAFVS (from UniProt P01009 25-418) | 1.01e+06 | 3.01 | 
API M358R P7–P3 variant DAFAA (from UniProt P01009 25-418) |  | 1.59 | 
API M358R P7–P3 variant DITMA (from UniProt P01009 25-418) | 1e+06 | 1.64 | 1.7
API M358R P7–P3 variant DLTVS (plaque consensus) (from UniProt P01009 25-418) | 529000 |  | 
API M358R P7–P3 variant DVTVS (from UniProt P01009 25-418) |  | 1.42 | 
API M358R P7–P3 variant EAHFR (from UniProt P01009 25-418) |  | 1.51 | 
API M358R P7–P3 variant EATVS (from UniProt P01009 25-418) | 617000 | 1.54 | 
API M358R P7–P3 variant EISLQ (from UniProt P01009 25-418) | 783000 | 2.61 | 
API M358R P7–P3 variant FHTLG (from UniProt P01009 25-418) |  | 2.13 | 
API M358R P7–P3 variant HATVS (from UniProt P01009 25-418) | 504000 | 1.99 | 
API M358R P7–P3 variant ISSAN (from UniProt P01009 25-418) |  | 1.46 | 
API M358R P7–P3 variant LAITS (from UniProt P01009 25-418) |  | 1.45 | 
API M358R P7–P3 variant LASMR (from UniProt P01009 25-418) | 895000 | 1.89 | 
API M358R P7–P3 variant LATVS (lysate consensus) (from UniProt P01009 25-418) | 765000 |  | 1.5
API M358R P7–P3 variant LHTLG (from UniProt P01009 25-418) | 786000 |  | 2.1
API M358R P7–P3 variant LINPI (from UniProt P01009 25-418) |  | 1.54 | 
API M358R P7–P3 variant LSELA (from UniProt P01009 25-418) |  | 1.28 | 
API M358R P7–P3 variant LTTLR (from UniProt P01009 25-418) | 896000 | 2.09 | 
API M358R P7–P3 variant NLIPT (from UniProt P01009 25-418) | 176000 |  | 
API M358R P7–P3 variant QATFL (from UniProt P01009 25-418) | 593000 | 1.91 | 
API M358R P7–P3 variant QVKPA (from UniProt P01009 25-418) |  | 1.37 | 
API M358R P7–P3 variant TLSAV (from UniProt P01009 25-418) |  | 1.36 | 
API M358R P7–P3 variant TVSVS (from UniProt P01009 25-418) |  | 1.49 | 
API M358R P7–P3 variant VTTIT (from UniProt P01009 25-418) |  | 1.9 | 
recombinant hexahistidine-tagged API M358R (from UniProt P01009 25-418) (natural protein) | 487000 |  | 

Reference: publication PMC3888415
